Results on one molecule are retold here after patent publication US12187785B2, “Recombinant protein and fragments thereof, method for producing said recombinant protein, synthetic gene and use of sculptin or recombinant protein for preparing a medicament or pharmaceutical composition for the prophylaxis and/or treatment of thromboembolic diseases or as a direct and specific …” (priority 2017, dated 2025).

The target in the test is T1, trypsin (Bos taurus, UniProt P00760).
T1 construct: gene PRSS1
T1 sequence (P00760 24-246): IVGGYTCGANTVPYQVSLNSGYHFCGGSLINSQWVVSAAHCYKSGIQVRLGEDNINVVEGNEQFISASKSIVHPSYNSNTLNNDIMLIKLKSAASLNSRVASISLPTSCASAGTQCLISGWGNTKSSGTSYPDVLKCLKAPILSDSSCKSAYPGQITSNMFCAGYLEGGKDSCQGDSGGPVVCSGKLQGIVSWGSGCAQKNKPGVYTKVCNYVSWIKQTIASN
Nature of the test: Degradation of recombinant protein by trypsin (SDS-PAGE and residual thrombin inhibition). The class given is in vitro ADME. As to the method: Recombinant protein (10 μM) was incubated with or without serine protease 1 μM (thrombin, plasmin, trypsin or factor Xa) in phosphate buffer 50 mM containing NaCl 150 mM and 0.1% of PEG 6000, pH 7.4 for 4, 6, 7 or 18 h at 37° C. Reaction mixtures (20 μl) were split by SDS-PAGE. (A) hydrolysis SDS-PAGE (15%) of recombinant protein by serine proteases following 6 h of incubation. (B) Percentage of thrombin inhibition by recombinant protein following 6 h of incubation with serine protease (see experimental procedures). (C) hydrolysis SDS-PAGE (15%) of recombinant protein by serine proteases following 18 h of incubation. (D) Percentage of thrombin inhibition by recombinant protein following 18 h of incubation with serine protease (see experimental procedures). Numbering of (B) and (D) corresponds to numbering of (A) and (C), respectively, and recombinant protein control is represented by CTRL. Recombinant protein (strip 1); thrombin (strip 2) and thrombin with recombinant protein (strip 3); plasmin (strip 4) and plasmin with recombinant protein (strip 5); trypsin (strip 6) and trypsin with recombinant protein (strip 7); factor Xa (strip 8) and factor Xa with recombinant protein (strip 9) and protein marker (strip 10; in A). (E) Identification of cleavage sites of thrombin in recombinant protein following 7 h of incubation. (F) Identification of cleavage sites of factor Xa in recombinant protein following 4 h of incubation. Cleavage sites of thrombin and factor Xa in recombinant protein sequence are shown in FIGS. S1 and S2, respectively. Experimental procedure for (C), (D), (E) and (F) was the same as for (A) and (B), except the incubation time and the type of serine protease used. FIG. 5 discloses “GKPQG” as SEQ ID NO: 18, “MPKGG” as SEQ ID NO: 19, and “SDAVH” as SEQ ID NO: 20.
Afterwards, it was determined whether serine proteases, like thrombin, plasmin, factor Xa and trypsin, hydrolyze recombinant protein. […] Upon addition of chromogenic substrate S-2238, the hydrolysis thereof by thrombin was monitored in spectrophotometer way. […]

B1: GKPQGHPHDALEARSDAVHTAVPKMPKGGHGGFEPIPIDYDERALEARSDAVHTAVPKMPKGGLGGFEPIPIDYDERALEARSDAVHTAVPKMPKGGHGGFEPIPIDYDERALEARSDAVHTAVPKMPKGGHGGFEPIPIDYDERALHALEHHHHHH (protein)
chain: GKPQGHPHDALEARSDAVHTAVPKMPKGGHGGFEPIPIDYDERALEARSDAVHTAVPKMPKGGLGGFEPIPIDYDERALEARSDAVHTAVPKMPKGGHGGFEPIPIDYDERALEARSDAVHTAVPKMPKGGHGGFEPIPIDYDERALHALEHHHHHH
modifications: Sculptin recombinat protein
notes: recombinant His-tagged protein modified from tick sculptin, expressed in E. coli
Take B1: the “SDS-PAGE strip of 20-kDa (non-digested recombinant protein)” value (10 μM protein with 1 μM trypsin, 6 h at 37° C.) is listed as “completely disappeared”. The “SDS-PAGE strip of 20-kDa (recombinant protein monomer)” value (10 μM protein with 1 μM trypsin, 18 h at 37° C.) is given as “completely disappeared”. Moreover, the “thrombin inhibition after incubation” value (after 18 h incubation with trypsin, diluted to 100 pM) was “did not inhibit thrombin”.
